For test [1], the target named is MuRF1/telethonin complex co-expressed in yeast from pBridge::MuRF1/telethonin (rat) (UniProt Q91Z63). In words: yeast three-hybrid.
The target of test [2] is GST-MuRF1/telethonin complexes, cross-linked (rat) (UniProt Q91Z63). In words: SPR. On the technique in general: In SPR one partner is held on a chip, and binding of the other changes the refractive index at the surface.
The target in test [3] is GST-MuRF1 (rat, UniProt Q91Z63 1-351). As to the kind of experiment: SPR.

For orientation: Kd means the free concentration of one partner at which half of the binding sites on the other are occupied at equilibrium, for simple one-to-one binding. Read a high Kd as lower affinity.

Sequence of MuRF1/telethonin complex co-expressed in yeast from pBridge::MuRF1/telethonin (rat) (Q91Z63 whole entry, looked up, one chain of several): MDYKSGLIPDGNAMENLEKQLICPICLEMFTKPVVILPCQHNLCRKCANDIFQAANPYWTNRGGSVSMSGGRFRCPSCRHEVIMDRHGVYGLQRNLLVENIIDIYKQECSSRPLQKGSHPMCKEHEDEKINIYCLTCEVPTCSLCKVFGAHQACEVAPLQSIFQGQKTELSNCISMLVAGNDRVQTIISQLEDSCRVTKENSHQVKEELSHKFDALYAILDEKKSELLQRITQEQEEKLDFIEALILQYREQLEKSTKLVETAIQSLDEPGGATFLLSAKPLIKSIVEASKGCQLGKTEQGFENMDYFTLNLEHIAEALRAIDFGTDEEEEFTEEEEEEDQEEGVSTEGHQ
Sequence of GST-MuRF1 (Q91Z63 whole entry): as the sequence (Q91Z63 whole entry, looked up, one chain of several) above

“UBE2E1 fused to the activation domain of GAL4 (from UniProt P52482 1-193) (enzyme)”: the percent positive clones in test [1] stood at 93%.

In test [2], “UBE2E1, untagged recombinant (from UniProt P52482 1-193) (enzyme)” came in with a Kd of 5 nM.

B1: UBE2G1, untagged recombinant (enzyme, human, UniProt P62253 1-170, looked up)
chain: MTELQSALLLRRQLAELNKNPVEGFSAGLIDDNDLYRWEVLIIGPPDTLYEGGVFKAHLTFPKDYPLRPPKMKFITEIWHPNVDKNGDVCISILHEPGEDKYGYEKPEERWLPIHTVETIMISVISMLADPNGDSPANVDAAKEWREDRNGEFKRKVARCVRKSQETAFE
Molecule B1 returned a percent positive clones in test [1] of 58%. Besides, in test [3], the “ka of the E2G1 dimer (heterogeneous analyte model)” value is around 300 M⁻¹ s⁻¹ and the “ka of the E2G1 monomer (heterogeneous analyte model)” value was around 4000 M⁻¹ s⁻¹.

(Values after PMC5803617 (Journal of Cachexia, Sarcopenia and Muscle, 2017).)
